Test results reported in patent US20250215058A1 (CHILDREN S MEDICAL CENTER, published 2025).

Key:
GST-Epx2 = GST-Epx2 (E. faecium, UniProt P08515 1-218 = GST); assay: GST pull-down from lysates of transfected HEK293 cells, anti-FLAG immunoblot
GST-Epx3 = GST-Epx3 (E. faecalis, UniProt P08515 1-218 = GST); assay: as above
Chain of GST-Epx3 (P08515 1-218, tags or fused parts left off): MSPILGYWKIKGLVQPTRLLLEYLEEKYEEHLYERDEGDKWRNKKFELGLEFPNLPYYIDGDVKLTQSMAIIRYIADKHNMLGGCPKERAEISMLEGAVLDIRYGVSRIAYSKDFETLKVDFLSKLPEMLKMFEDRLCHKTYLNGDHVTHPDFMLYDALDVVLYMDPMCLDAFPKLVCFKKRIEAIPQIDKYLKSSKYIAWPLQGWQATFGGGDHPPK

Chain of GST-Epx2 (P08515 1-218, tags or fused parts left off): as above

Binder	binding result (GST-Epx2)	binding result (GST-Epx3)
HLA-B (full length, FLAG-tagged, expressed in HEK293 cells) (receptor, also called HLA-B alone; not shown: triple-FLAG tag) MHC heavy: GSHSMRYFYTSVSRPGRGEPRFISVGYVDDTQFVRFDSDAASPREEPRAPWIEQEGPEYWDRNTQIYKAQAQTDRESLRNLRGYYNQSEAGSHTLQSMYGCDVGPDGRLLRGHDQYAYDGKDYIALNEDLRSWTAADTAAQITQRKWEAAREAEQRRAYLEGECVEWLRRYLENGKDKLERADPPKTHVTHHPISDHEATLRCWALGFYPAEITLTWQRDGEDQTQDTELVETRPAGDRTFQKWAAVVVPSGEEQRYTCHVQHEGLPKPLTLRWEPSSQSTVPIVGIVAGLAVLAVVVIGAVVAAVMCRRKSSGGKGGSYSQAACSDSAQGSDVSLTAEFGSGSGS	no binding	no binding
HLA-C (full length, FLAG-tagged, expressed in HEK293 cells) (receptor, also called HLA-C alone; not shown: triple-FLAG tag) MHC heavy: CSHSMRYFDTAVSRPGRGEPRFISVGYVDDTQFVRFDSDAASPRGEPRAPWVEQEGPEYWDRETQKYKRQAQADRVSLRNLRGYYNQSEDGSHTLQRMSGCDLGPDGRLLRGYDQSAYDGKDYIALNEDLRSWTAADTAAQITQRKLEAARAAEQLRAYLEGTCVEWLRRYLENGKETLQRAEPPKTHVTHHPLSDHEATLRCWALGFYPAEITLTWQRDGEDQTQDTELVETRPAGDGTFQKWAAVVVPSGQEQRYTCHMQHEGLQEPLTLSWEPSSQPTIPIMGIVAGLAVLVVLAVLGAVVTAMMCRRKSSGGKGGSCSQAACSNSAQGSDESLITCKAEFGSGSGS	no binding	no binding
HLA-A (full length, 3× FLAG tagged, expressed in HEK293 cells) (receptor, also called HLA-A alone; not shown: triple-FLAG tag) MHC heavy: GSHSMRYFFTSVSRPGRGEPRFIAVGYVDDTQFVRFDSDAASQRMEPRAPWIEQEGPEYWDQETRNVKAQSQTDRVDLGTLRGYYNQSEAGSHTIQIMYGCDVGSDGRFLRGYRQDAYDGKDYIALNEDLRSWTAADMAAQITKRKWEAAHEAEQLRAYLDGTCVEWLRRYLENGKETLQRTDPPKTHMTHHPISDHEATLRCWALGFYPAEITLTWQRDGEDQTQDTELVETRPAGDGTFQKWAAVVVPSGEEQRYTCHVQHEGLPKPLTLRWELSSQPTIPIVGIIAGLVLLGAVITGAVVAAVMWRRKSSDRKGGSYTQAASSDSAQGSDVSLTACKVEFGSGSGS	no binding	no binding
